# Laboratory results as given in US20110039770A1, “INHIBITORS OF PROTEIN KINASE C ISOFORMS AND USES THEREOF” (PHARMAGAP INC., priority 2005, published 2011).
# Where a SMILES comes first, the peptide text is derived from it. [ ]: non-standard residue; d: D form.
# Key:
# PKC-δ [1] = target: T1, PKC-δ (Homo sapiens, UniProt Q05655); assay: ELISA-based competitive binding assay with purified PKC isoform; set-up: key to Affinity for PKC isoform δ: —: no detectable affinity; Low to very low affinity at 10X or 20X or both PRE concentrations in at least one cell line in the cell extract assay; Low affinity in purified isoform assay.; Moderate affinity at 10X or 20X or both PRE concentrations in at least one cell line in the cell extract assay.; High affinity at 10X or 20X or both PRE concentrations in at least one cell line in the cell extract assay; High affinity in purified isoform assay; settings: for Affinity for PKC isoform δ: Purified isoform
# Experimental: Peptides PRE 1, 2, 3, 4, 5, 6, 7, 8, 9, 10, 11, 12 and 13 (see Table 3) were tested for their ability to interfere with binding of PKC isoform-specific antibodies to their target PKC isoforms using a competitive binding assay and purified PKC isoforms.
# Procedure: Competitive binding was assessed using a 96 well plate ELISA-based assay as described below.
# Greiner 96 well ELISA plates were coated with the appropriate PKC isoform diluted in PBSN (PBS with Calcium/Magnesium+0.05% Sodium azide w/w). 50 μL/well at 250 ng/mL was used. Control wells contained PBSN only. Plates were incubated overnight at 4° C.
# The plates were washed 3 times with 200 μL of dH2O per well, then 100 μL of blocking solution was added per well and the plate incubated for 1 h at 37° C. The washing steps with dH2O were repeated and 50 μL of the appropriate PRE solution (PRE stock solution [20 mM in DMSO] diluted in PBSN) was added and the plate incubated for 1 h at room temperature.
# After incubation, 5 μL of 1.1:400 anti-PKC (isoform specific antibody) was added per well (to provide a final concentration of 1:4000). For PKC-epsilon, 1.1:800 dilution was used and for PKC-zeta a 1.1:100 dilution was used due to high and low binding affinity, respectively. The plates were then incubated 1 h at room temperature, followed by washing with dH2O as described above.
# 50 μL of 1:1000 dilution of Alkaline Phosphatase (AP) conjugated antibody (anti-rabbit for all except zeta, which was anti-goat) was then added and the plate incubated for 1 h at room temperature. Washing with dH2O was then repeated. Finally, 100 μL of pNPP solution in pNPP buffer (2 mM MgCl2, 100 mM Sodium bicarbonate in water, pH 9.8) was added to all wells and incubated for 8 minutes for α, βI, βII ε, and ζ, or for 15-20 mins for δ (until sufficient coloration is observed). The reaction was stopped by addition of Stop solution (2N NaOH) and the absorbance at 405 nm was read on a Galaxy Plate reader.
# Controls were PKC without PRE; blank controls, and controls containing the final concentrations of DMSO used for solubilizing the PREs. The non-specific binding capacity related to DMSO was also measured.
# The antibodies used were as follows: anti-PKC α (Cat. No. SC-208); anti-PKC βI (Cat. No. SC-209); anti-PKC βII (Cat. No. SC-210); anti-PKC δ (Cat. No. SC-213); anti-PKC ε (Cat. No. SC-214); anti-PKC ζ (Cat. No. SC-216-G) (all from Santa Cruz Biotechnology, Inc.). The AP-conjugated antibodies were obtained from Jackson Immuno Research Laboratories (West Grove, Pa.).
# Calculations: The OD values measured at 405 nm represent the free PKC coated per well.
# OD405 PKC alone−Blank OD405 of each sample=OD405 coated isoform
# (OD405 of sample X/OD405 coated isoform)×100=% n that represents the percentage of X binding compared to control.
# 100-% n measures the relative binding capacity of X towards the tested isoform.
# The apparent binding capacity of the DMSO samples was then subtracted from X binding capacity.
# All measurements were made in triplicate and the values in the table represent the averaged calculated binding capacity values after subtraction of the DMSO apparent binding capacity (averaged from 12 values, respectively 10.80, 11.20 and 16.40 corresponding to the concentrations of DMSO used to dilute the […] at 200, 100 and 50 μM respectively). The results allow for quantitative comparison of the binding capacity of each PRE towards an individual isoform within each table, but not among isoforms due to differences in sensitivity of the specific antibodies toward the secondary antibody. This applies particularly to PKC-delta. As noted above, the colour development duration was increased 2-3 times and, as a result, the OD405 measurements may be overestimated for this isoform.
# PKC-δ [2] = target: T1, PKC-δ; assay: Competitive binding assay using cell extracts (Western blot); set-up: cytoplasmic extracts from different cell lines expressing appropriate PKC isoforms; endogenous in cells; host or cells: H661, MDAMB231, LS180, T24; key: —: no detectable affinity; Low to very low affinity at 10X or 20X or both PRE concentrations in at least one cell line in the cell extract assay; Low affinity in purified isoform assay.; Moderate affinity at 10X or 20X or both PRE concentrations in at least one cell line in the cell extract assay.; High affinity at 10X or 20X or both PRE concentrations in at least one cell line in the cell extract assay; High affinity in purified isoform assay; settings: Cell extract; PRE 10X or 20X antibody concentration
# Experimental: Binding efficiency and specificity of the peptides PRE 2, 3, 4, 5, 6, 7, 8, 9, 10, 11, 12 and 13 (see Table 4) was also tested using cytoplasmic extracts from different cell lines expressing appropriate PKC isoforms as described for Example 1. Briefly, the protein cytoplasmic extracts were separated by electrophoresis and transferred onto nitrocellulose membranes by standard Western blotting procedures. The bands on the Western blots were detected with matching primary antibodies and alkaline phosphatase conjugated secondary antibody. The bands were then scanned and the relative density measurements obtained.
# This procedure to assess the binding characteristics of the PREs is based on competition binding of the PRE with the primary anti-isoform PKC specific antibodies. The lower the measured band density, the greater the binding of the PRE to the PKC isoform. The PREs were added at 10 and 20 times (10×, 20×) the primary antibody concentration, according to classical competition between antigenic peptide and primary antibody. The following cell lines (obtained from the ATCC) were used: H661—NCI human lung carcinoma NSCLC; MDAMB231—human highly invasive breast cancer cell line from pleural effusion; LS180—human colon adenocarcinoma; LnCAP—human prostate adenocarcinoma; CCD16Lu—human lung fibroblasts; Du145—human prostate carcinoma brain metastasis, and T24—human bladder carcinoma.
# In these cases, the 20× band density figures relative to control and 10× values were reliable.
# T1 sequence (Q05655 whole entry, canonical isoform): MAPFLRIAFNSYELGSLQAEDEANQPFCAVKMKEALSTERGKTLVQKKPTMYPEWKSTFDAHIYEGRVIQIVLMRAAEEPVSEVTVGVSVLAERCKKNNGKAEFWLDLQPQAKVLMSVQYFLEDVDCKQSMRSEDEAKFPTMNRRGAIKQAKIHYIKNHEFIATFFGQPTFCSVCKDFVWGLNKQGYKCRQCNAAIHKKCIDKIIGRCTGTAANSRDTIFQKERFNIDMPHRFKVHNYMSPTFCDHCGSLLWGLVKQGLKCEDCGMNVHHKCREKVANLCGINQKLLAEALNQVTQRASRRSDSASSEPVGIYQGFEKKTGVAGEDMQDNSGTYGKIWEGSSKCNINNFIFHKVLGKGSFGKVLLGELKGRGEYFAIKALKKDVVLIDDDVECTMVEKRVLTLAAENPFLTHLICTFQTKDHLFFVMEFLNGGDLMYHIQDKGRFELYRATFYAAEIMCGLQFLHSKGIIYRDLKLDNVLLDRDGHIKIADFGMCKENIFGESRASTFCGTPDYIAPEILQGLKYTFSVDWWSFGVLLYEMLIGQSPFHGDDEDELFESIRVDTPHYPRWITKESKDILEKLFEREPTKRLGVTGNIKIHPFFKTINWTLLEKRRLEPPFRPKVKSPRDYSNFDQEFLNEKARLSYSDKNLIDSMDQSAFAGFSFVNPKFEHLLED
Compound,Affinity for PKC isoform δ (PKC-δ [1]),Affinity for PKC isoform δ (PKC-δ [2]),also measured
CC[C@H](C)[C@H](NC(=O)[C@H](CO)NC(=O)[C@@H](NC(=O)CNC(=O)[C@@H](NC(=O)[C@H](CC(C)C)NC(=O)[C@H](CC(N)=O)NC(=O)[C@H](CCC(N)=O)NC(=O)[C@H](C)NC(=O)[C@H](CC(=O)O)NC(=O)CNC(=O)CNC(=O)[C@H](CCCCN)NC(=O)[C@@H](NC(=O)[C@H](CCC(=O)O)NC(=O)[C@H](CCC(N)=O)NC(=O)[C@@H](NC(=O)CNC(=O)[C@H](CCCCN)NC(=O)[C@H](C)NC(C)=O)[C@@H](C)CC)C(C)C)[C@@H](C)CC)[C@@H](C)CC)C(N)=O [PRE 3] (Ac-AKGIQEVKGGDAQNLIGISI-NH2),H,H,
"CC[C@H](C)[C@H](NC(=O)[C@H](CO)NC(=O)[C@@H](NC(=O)CNC(=O)[C@@H](NC(=O)[C@H](CC(C)C)NC(=O)[C@H](CC(N)=O)NC(=O)[C@H](CCC(N)=O)NC(=O)[C@H](C)NC(=O)[C@H](CC(=O)O)NC(=O)[C@H](CCCCN)NC(C)=O)[C@@H](C)CC)[C@@H](C)CC)C(N)=O [PRE 4, Ac-KDAQNLIGISI-NH2] (Ac-KDAQNLIGISI-NH2)",H,—,
CC[C@H](C)[C@H](NC(=O)[C@H](CO)NC(=O)[C@@H](NC(=O)CNC(=O)[C@@H](NC(=O)[C@H](CC(C)C)NC(=O)[C@H](CC(N)=O)NC(=O)[C@H](CCC(N)=O)NC(=O)[C@H](C)NC(=O)[C@H](CC(=O)O)NC(=O)[C@H](CCCCN)NC(=O)CNC(=O)CNC(=O)[C@H](CCCCN)NC(=O)[C@@H](NC(=O)[C@H](CCC(=O)O)NC(=O)[C@H](CCC(N)=O)NC(=O)[C@@H](NC(=O)CNC(=O)[C@H](CCCCN)NC(=O)[C@H](C)NC(C)=O)[C@@H](C)CC)C(C)C)[C@@H](C)CC)[C@@H](C)CC)C(N)=O [PRE 5] (Ac-AKGIQEVKGGKDAQNLIGISI-NH2),L,—,"inhibition at 50 µM (PKC-δ [1]; PRE 50 μM, purified PKC-δ (may be overestimated), read-out: calculated binding capacity (100-% n, DMSO apparent binding subtracted)): 0.2%; inhibition at 100 µM (PKC-δ [1]; PRE 100 μM, purified PKC-δ (may be overestimated), read-out: calculated binding capacity (100-% n, DMSO apparent binding subtracted)): 0%"
Ac-ISIGILNQADK-NH2 [PRE 10],—,H,
Ac-ISIGILQNADK-NH2 (not fully specified; printed as Ac-ISIGILQNADK-NH2) [PRE 7],—,L,
Ac-KDANQLIGISI-NH2 [PRE 6],L,M/H,
Ac-KDAQNLI-NH2 [PRE 12],L,—,
Ac-RDAQNLI-NH2 [PRE 13],L,—,
Ac-RDAQNLIGISI-NH2 [PRE 11],H,—,
Ac-isigilqnadk-NH2 (Ac-[dI][dS][dI]G[dI][dL][dQ][dN][dA][dD][dK]-NH2; SMILES CC[C@@H](C)[C@@H](NC(C)=O)C(=O)N[C@H](CO)C(=O)N[C@@H](C(=O)NCC(=O)N[C@@H](C(=O)N[C@H](CC(C)C)C(=O)N[C@H](CCC(N)=O)C(=O)N[C@H](CC(N)=O)C(=O)N[C@H](C)C(=O)N[C@H](CC(=O)O)C(=O)N[C@H](CCCCN)C(N)=O)[C@H](C)CC)[C@H](C)CC) [PRE 9],L,H,"calculated binding capacity (100-% n, DMSO apparent binding subtracted) (PKC-δ [1]; PRE 50 μM, purified PKC-δ (may be overestimated)): 16.23%; calculated binding capacity (100-% n, DMSO apparent binding subtracted) (PKC-δ [1]; PRE 100 μM, purified PKC-δ (may be overestimated)): 19.27%; calculated binding capacity (100-% n, DMSO apparent binding subtracted) (PKC-δ [1]; PRE 200 μM, purified PKC-δ (may be overestimated)): 9.95%"
ILEDKGGDAQNLIGISI [PRE 8],—,L,
RRKKGGKDFVVKR [PRE 1],H,—,
